# In article PMC10397247:
# T1: P3A-bH
# T1 chain: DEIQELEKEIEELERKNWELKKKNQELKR
# T2: P4A-bH
# T2 chain: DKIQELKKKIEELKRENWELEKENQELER
# T3: P5A-bH
# T3 chain: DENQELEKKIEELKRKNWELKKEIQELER
# T4: P6A-bH
# T4 chain: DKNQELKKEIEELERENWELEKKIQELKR
# T5: P7A-bH
# T5 chain: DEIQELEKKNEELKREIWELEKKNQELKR
# T6: P8A-bH
# T6 chain: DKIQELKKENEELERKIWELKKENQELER
# T7: P9A-bH
# T7 chain: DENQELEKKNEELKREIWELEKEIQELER
# T8: 4H3112-AA
# T8 chain: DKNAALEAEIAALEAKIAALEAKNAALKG
# T9: 4H317-AA
# T9 chain: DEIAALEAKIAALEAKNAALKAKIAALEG
# T10: 4H3343-AA
# T10 chain: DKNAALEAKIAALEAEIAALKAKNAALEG
# T11: 4H335-AA
# T11 chain: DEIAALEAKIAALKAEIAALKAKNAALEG
# T12: 4H3354-AA
# T12 chain: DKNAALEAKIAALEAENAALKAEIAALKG
# T13: 4H342-AA
# T13 chain: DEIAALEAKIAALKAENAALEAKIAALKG
# T14: 4H3427-AA
# T14 chain: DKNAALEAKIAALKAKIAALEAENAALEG
# T15: 4H3606-AA
# T15 chain: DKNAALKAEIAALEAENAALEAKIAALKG
# T16: 4H3627-AA
# T16 chain: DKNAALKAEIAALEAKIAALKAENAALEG
# T17: 4H3655-AA
# T17 chain: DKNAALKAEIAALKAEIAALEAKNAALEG
# T18: 4H3782-AA
# T18 chain: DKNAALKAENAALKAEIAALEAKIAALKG
# T19: 4H3844-AA
# T19 chain: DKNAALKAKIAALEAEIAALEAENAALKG
# T20: 4H3855-AA
# T20 chain: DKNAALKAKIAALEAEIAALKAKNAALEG
# T21: 4H3921-AA
# T21 chain: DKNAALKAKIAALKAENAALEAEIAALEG
# T22: 4H4001-AA
# T22 chain: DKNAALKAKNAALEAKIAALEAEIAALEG
# T23: 4H429-AA
# T23 chain: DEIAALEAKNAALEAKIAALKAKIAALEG
# T24: 4H454-AA
# T24 chain: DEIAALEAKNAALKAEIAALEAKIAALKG
# T25: 4H48-AA
# T25 chain: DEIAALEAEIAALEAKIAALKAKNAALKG
# T26: 4H566-AA
# T26 chain: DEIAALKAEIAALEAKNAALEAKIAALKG
# T27: 4H568-AA
# T27 chain: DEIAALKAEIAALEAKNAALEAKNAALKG
# T28: 4H605-AA
# T28 chain: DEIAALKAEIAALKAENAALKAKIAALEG
# T29: 4H678-AA
# T29 chain: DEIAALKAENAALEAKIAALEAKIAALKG
# T30: 4H687-AA
# T30 chain: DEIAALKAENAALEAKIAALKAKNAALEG
# T31: 4H717-AA
# T31 chain: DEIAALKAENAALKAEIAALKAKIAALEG
# T32: 4H780-AA
# T32 chain: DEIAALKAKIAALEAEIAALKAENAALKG
# T33: 4H794-AA
# T33 chain: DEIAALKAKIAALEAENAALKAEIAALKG
# T34: 4H797-AA
# T34 chain: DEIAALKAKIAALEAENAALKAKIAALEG
# T35: 4H881-AA
# T35 chain: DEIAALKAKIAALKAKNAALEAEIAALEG
# T36: 4H883-AA
# T36 chain: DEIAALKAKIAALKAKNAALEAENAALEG
# T37: 4H906-AA
# T37 chain: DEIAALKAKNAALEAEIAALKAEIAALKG
# T38: 4H918-AA
# T38 chain: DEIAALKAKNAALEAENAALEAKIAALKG
# T39: 4H953-AA
# T39 chain: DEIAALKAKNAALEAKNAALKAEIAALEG
# T40: 4H967-AA
# T40 chain: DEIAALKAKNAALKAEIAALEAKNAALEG
# T41: 4H993-AA
# T41 chain: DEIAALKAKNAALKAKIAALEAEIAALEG
# Assays:
# P3A-bH = molecular target: T1, P3A-bH; assay: two-hybrid library CCNG1;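 note: natural log of median RNA to DNA barcode read ratio; higher means stronger binding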
# P4A-bH = molecular target: T2, P4A-bH; assay: two-hybrid library CCNG1;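 note: natural log of median RNA to DNA barcode read ratio; higher means stronger binding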
# P5A-bH = molecular target: T3, P5A-bH; assay: two-hybrid library CCNG1;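 note: natural log of median RNA to DNA barcode read ratio; higher means stronger binding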
# P6A-bH = molecular target: T4, P6A-bH; assay: two-hybrid library CCNG1;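 note: natural log of median RNA to DNA barcode read ratio; higher means stronger binding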
# P7A-bH = molecular target: T5, P7A-bH; assay: two-hybrid library CCNG1;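 note: natural log of median RNA to DNA barcode read ratio; higher means stronger binding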
# P8A-bH = molecular target: T6, P8A-bH; assay: two-hybrid library CCNG1;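 note: natural log of median RNA to DNA barcode read ratio; higher means stronger binding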
# P9A-bH = molecular target: T7, P9A-bH; assay: two-hybrid library CCNG1
# 4H3112-AA = molecular target: T8, 4H3112-AA; assay: two-hybrid library CCmax
# 4H317-AA = molecular target: T9, 4H317-AA; assay: two-hybrid library CCmax; details: mean of both orientations
# 4H3343-AA = molecular target: T10, 4H3343-AA; assay: two-hybrid library CCmax; details: mean of both orientations
# 4H335-AA = molecular target: T11, 4H335-AA; assay: two-hybrid library CCmax; details: mean of both orientations
# 4H3354-AA = molecular target: T12, 4H3354-AA; assay: two-hybrid library CCmax; details: mean of both orientations
# 4H342-AA = molecular target: T13, 4H342-AA; assay: two-hybrid library CCmax; details: mean of both orientations
# 4H3427-AA = molecular target: T14, 4H3427-AA; assay: two-hybrid library CCmax; details: mean of both orientations
# 4H3606-AA = molecular target: T15, 4H3606-AA; assay: two-hybrid library CCmax; details: mean of both orientations
# 4H3627-AA = molecular target: T16, 4H3627-AA; assay: two-hybrid library CCmax; details: mean of both orientations
# 4H3655-AA = molecular target: T17, 4H3655-AA; assay: two-hybrid library CCmax; details: mean of both orientations
# 4H3782-AA = molecular target: T18, 4H3782-AA; assay: two-hybrid library CCmax; details: mean of both orientations
# 4H3844-AA = molecular target: T19, 4H3844-AA; assay: two-hybrid library CCmax; details: mean of both orientations
# 4H3855-AA = molecular target: T20, 4H3855-AA; assay: two-hybrid library CCmax; details: mean of both orientations
# 4H3921-AA = molecular target: T21, 4H3921-AA; assay: two-hybrid library CCmax; details: mean of both orientations
# 4H4001-AA = molecular target: T22, 4H4001-AA; assay: two-hybrid library CCmax; details: mean of both orientations
# 4H429-AA = molecular target: T23, 4H429-AA; assay: two-hybrid library CCmax; details: mean of both orientations
# 4H454-AA = molecular target: T24, 4H454-AA; assay: two-hybrid library CCmax; details: mean of both orientations
# 4H48-AA = molecular target: T25, 4H48-AA; assay: two-hybrid library CCmax; details: mean of both orientations
# 4H566-AA = molecular target: T26, 4H566-AA; assay: two-hybrid library CCmax; details: mean of both orientations
# 4H568-AA = molecular target: T27, 4H568-AA; assay: two-hybrid library CCmax; details: mean of both orientations
# 4H605-AA = molecular target: T28, 4H605-AA; assay: two-hybrid library CCmax; details: mean of both orientations
# 4H678-AA = molecular target: T29, 4H678-AA; assay: two-hybrid library CCmax; details: mean of both orientations
# 4H687-AA = molecular target: T30, 4H687-AA; assay: two-hybrid library CCmax; details: mean of both orientations
# 4H717-AA = molecular target: T31, 4H717-AA; assay: two-hybrid library CCmax; details: mean of both orientations
# 4H780-AA = molecular target: T32, 4H780-AA; assay: two-hybrid library CCmax; details: mean of both orientations
# 4H794-AA = molecular target: T33, 4H794-AA; assay: two-hybrid library CCmax; details: mean of both orientations
# 4H797-AA = molecular target: T34, 4H797-AA; assay: two-hybrid library CCmax; details: mean of both orientations
# 4H881-AA = molecular target: T35, 4H881-AA; assay: two-hybrid library CCmax; details: mean of both orientations
# 4H883-AA = molecular target: T36, 4H883-AA; assay: two-hybrid library CCmax; details: mean of both orientations
# 4H906-AA = molecular target: T37, 4H906-AA; assay: two-hybrid library CCmax; details: mean of both orientations
# 4H918-AA = molecular target: T38, 4H918-AA; assay: two-hybrid library CCmax; details: mean of both orientations
# 4H953-AA = molecular target: T39, 4H953-AA; assay: two-hybrid library CCmax; details: mean of both orientations
# 4H967-AA = molecular target: T40, 4H967-AA; assay: two-hybrid library CCmax; details: mean of both orientations
# 4H993-AA = molecular target: T41, 4H993-AA; assay: two-hybrid library CCmax; details: mean of both orientations
binder,measurement,setting,value
DEIQELEKEIEELERKNWELKKKNQELKR [P3A-bH],interaction score,P3A-bH,-0.68
same,interaction score,P4A-bH,1.77
same,interaction score,P5A-bH,0.779
same,interaction score,P6A-bH,0.553
same,interaction score,P7A-bH,0.468
same,interaction score,P8A-bH,-1.03
same,interaction score,P9A-bH,0.465
DEIQELEKENEELERENWELEKEIQELER [P1A-bH],interaction score,P3A-bH,-1.59
same,interaction score,P4A-bH,-0.5
same,interaction score,P5A-bH,-0.798
same,interaction score,P6A-bH,-0.616
same,interaction score,P7A-bH,-0.716
same,interaction score,P8A-bH,-0.232
same,interaction score,P9A-bH,-1.36
DKNAALEAEIAALEAKIAALEAKNAALKG [4H3112-AA],interaction score,4H3112-AA,-0.157
same,interaction score,4H317-AA,-1.3
same,interaction score,4H3343-AA,-1.15
same,interaction score,4H335-AA,0.64
same,interaction score,4H3354-AA,-1.66
same,interaction score,4H342-AA,-0.739
same,interaction score,4H3427-AA,2.07
same,interaction score,4H3606-AA,-0.965
same,interaction score,4H3627-AA,0.212
same,interaction score,4H3655-AA,-0.414
same,interaction score,4H3782-AA,-0.975
same,interaction score,4H3844-AA,0.837
same,interaction score,4H3855-AA,-0.622
same,interaction score,4H3921-AA,-1.01
same,interaction score,4H4001-AA,-1.09
same,interaction score,4H429-AA,0.94
same,interaction score,4H454-AA,-0.722
same,interaction score,4H48-AA,0.163
same,interaction score,4H566-AA,-1.22
same,interaction score,4H568-AA,-0.907
same,interaction score,4H605-AA,-1.38
same,interaction score,4H678-AA,-1.37
same,interaction score,4H687-AA,-0.855
same,interaction score,4H717-AA,-1.33
same,interaction score,4H780-AA,-1.01
same,interaction score,4H794-AA,-1.51
same,interaction score,4H797-AA,-1.25
same,interaction score,4H881-AA,-0.621
same,interaction score,4H883-AA,0.194
same,interaction score,4H906-AA,-1.29
same,interaction score,4H918-AA,-1.44
same,interaction score,4H953-AA,-1.62
same,interaction score,4H967-AA,-1.38
same,interaction score,4H993-AA,-0.58
